For the experiment, the target named is T1, TAK1 (Homo sapiens, UniProt O43318).
T1 sequence (O43318 1-606): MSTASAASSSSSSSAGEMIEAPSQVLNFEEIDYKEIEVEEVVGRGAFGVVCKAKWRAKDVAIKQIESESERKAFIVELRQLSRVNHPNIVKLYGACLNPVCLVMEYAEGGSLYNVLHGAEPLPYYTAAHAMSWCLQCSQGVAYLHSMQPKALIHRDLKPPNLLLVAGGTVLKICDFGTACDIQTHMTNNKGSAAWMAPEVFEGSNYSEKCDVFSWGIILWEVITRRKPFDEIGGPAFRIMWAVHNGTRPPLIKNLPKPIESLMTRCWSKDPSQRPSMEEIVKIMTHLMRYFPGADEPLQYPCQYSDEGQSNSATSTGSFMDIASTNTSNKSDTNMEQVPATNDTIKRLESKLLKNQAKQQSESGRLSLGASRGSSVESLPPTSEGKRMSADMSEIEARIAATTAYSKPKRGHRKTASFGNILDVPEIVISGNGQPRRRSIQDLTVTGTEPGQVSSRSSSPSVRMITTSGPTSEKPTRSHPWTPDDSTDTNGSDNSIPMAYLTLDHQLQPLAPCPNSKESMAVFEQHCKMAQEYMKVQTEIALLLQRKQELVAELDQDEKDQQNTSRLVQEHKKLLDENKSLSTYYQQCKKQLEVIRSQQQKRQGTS
The experiment in a line: Co-IP of FLAG-tagged galectins with GFP-tagged TAK1 in HEK293T cells. It is filed as binding. The following applies: HEK293T overexpressing FLAG-tagged galectins and GFP-TAK1. How it is done:
(A) Analysis of the activation of AMPK in wildtype (WT) and the complementation of Gal9 in Gal9-knockout (Gal9KO) HEK293A cells treated with 100 μM GPN in full medium for 1 h. AMPK activity was monitored by immunoblotting analysis of AMPKα (T172) and acetyl-CoA carboxylase (ACC, S79) phosphorylation (phosphorylated AMPKα (T172) and ACC (S79) relative to total AMPKα and ACC respectively). (B) HEK293T cells transfected with scrambled siRNA (Scr) or Gal9 siRNA (Gal9KD) were treated with 2 mM LLOMe in full medium for 1 h, and the cell lysates were analyzed for phosphorylation of indicated proteins. Data, means±SEM, n=3, *p<0.05, ANOVA. (C) HEK293T cells overexpressing FLAG-Gal9 were treated with 2 mM LLOMe in full medium for 1 h. Cell lysates were analyzed for the indicated proteins. Data, means±SEM, n=3, *p<0.05, ANOVA. (D) Immunoprecipitation analysis of the interactions between galectins and TAK1. HEK293T cells overexpressing FLAG-tagged galectins and GFP-tagged TAK1 were subjected to anti-FLAG immunoprecipitation followed by immunoblotting for GFP-tagged TAK1. (E) Schematic diagram of Gal9 domains and deletion constructs. (F) HEK293T cells overexpressing FLAG-tagged full-length or truncated Gal9 and GFPAMPK were subjected to anti-FLAG immunoprecipitation, followed by immunoblotting for GFP-AMPK. (G) HEK293T cells overexpressing FLAG-tagged full-length or truncated Gal9 and GFP-TAK1 were subjected to anti-FLAG immunoprecipitation, followed by immunoblotting for GFP-TAK1. (H) Analysis of the activation of AMPK in HEK293T cells subjected to knockdowns as indicated treated with 100 μM GPN in full medium for 1 h. AMPK activity was monitored by immunoblotting analysis of AMPKα (T172) and acetyl-CoA carboxylase (ACC, S79) phosphorylation (phosphorylated AMPKα (T172) and ACC (S79) relative to total AMPKα and ACC respectively). Cells transfected with scrambled siRNA were as control (Scr). […]

These results are taken from US20210069295A1, “GALECTINS CONTROL MTOR IN RESPONSE TO ENDOMEMBRANE DAMAGE AND PROVIDE A MECHANISM AND TARGET FOR THE TREATMENT OF AUTOPHAGY-RELATED DISEASES” (STC. UNM, priority 2017, published 2021).

On to “Gal9: beta-galactoside-binding lectin protein of the galectin family”, for which the “interaction with TAK1” value is “interacted”.

In the case of “Gal8: protein of the galectin family encoded by the gene LGALS8; beta-galactoside-binding lectin”, the “interaction with TAK1” value is “not”.
